Assay results reported in US20120052069A1 (Amgen, published 2012).

Biological target: β-Klotho overexpressed in recombinant human 293T kidney cells
Experiment: cell-based or functional assay

EC50 (nM), ELK luciferase assay: 0.4 nM | Efficacy, ELK luciferase assay: 100%
B1: human FGF21 (wild-type mature FGF21) (ligand)
chain: HPIPDSSPLLQFGGQVRQRYLYTDDAQQTEAHLEIREDGTVGGAADQSPESLLQLKALKPGVIQILGVKTSRFLCQRPDGALYGSLHFDPEACSFRELLLEDGYNVYQSEAHGLPLHLPGNKSPHRDPAPRGPARFLPLPGLPPAPPEPPGILAPQPPDVGSSDPLSMVGPSQGRSPSYAS
